Results on 1 protein are retold here after PMC9737693, “Efficient Production of Fc Fusion Proteins in the Cytoplasm of Escherichia coli: Dissecting and Mitigating Redox Heterogeneity” (International Journal of Molecular Sciences, 2022).

The series concerns the molecule itself. Nature of the series: non-reducing SDS-PAGE; purified proteins, non-reduced and trapped with 25 mM NEM at room temperature for 10 min, SDS-PAGE, Coomassie Blue R-250; dimer seen as a covalently (disulfide) linked band.

B1: IgG1 CH2 domain with the hinge region (T106-A222) (domain or fragment, human, UniProt P01857 106-222, looked up)
chain: THTCPPCPAPELLGGPSVFLFPPKPKDTLMISRTPEVTCVVVDVSHEDPEVKFNWYVDGVEVHNAKTKPREEQYNSTYRVVSVLTVLHQDWLNGKEYKCKVSNKALPAPIEKTISKA
notes: human IgG1 hinge region and CH2 domain, residues T106-A222 of immunoglobulin heavy constant gamma 1, amplified from pAAT44; The dimer is told only for the protein made in the presence of CyDisCo (intermolecular hinge disulfide); also called IgG1 CH2 domain with hinge; hinge region fused to the CH2 domain; source: E. coli BL21(DE3) cytoplasm with CyDisCo (Erv1p, PDI), purified (cobalt IMAC)
Turning to B1, the binding result is recorded as “binds”.
